Target: Tetrahymena Bld10/CEP135 (Tetrahymena thermophila (endogenous in strain SB715))
Test: cryo-EM structure; single-particle analysis of mechanically disrupted (splayed) centrioles isolated from Tetrahymena, 10 mM Hepes pH 7.5; proximal A-C linker (class 1) with adjacent microtubule triplet regions; focused maps 3.6 to 3.8 Å (B-C junction 3.8 and 4.0 Å, A-B junction 5.8 Å); proteins assigned by fitting AlphaFold2 models of MS-detected proteins (COLORES)

stoichiometry N: 2
Substance: Tetrahymena Bld10/CEP135 (natural protein)

From article PMC12506977
